The record followed here is patent US20140363428A1 (Chugai, published 2014).

To fix the notation:
B1: F1718 (antibody)
heavy: QVQLQESGPGLVKPSETLSLTCAVSGHSISHDHAWSWVRQPPGEGLEWIGFISYSGITNYNPSLQGRVTISRDNSKNTLYLQMNSLRAEDTAVYYCARSLARTTAMDYWGEGTLVTVSSASTKGPSVFPLAPSSKSTSGGTAALGCLVKDYFPEPVTVSWNSGALTSGVHTFPAVLQSSGLYSLSSVVTVPSSSLGTQTYICNVNHKPSNTKVDKKVEPKSCDKTHTCPPCPAPELLGGPSVFLFPPKPKDTLMISRTPEVTCVVVDVSHEDPEVKFNWYVDGVEVHNAKTKPREEQYNSTYRVVSVLTVLHQDWLNGKEYKCKVSNKALPAPIEKTISKAKGQPREPQVYTLPPSRDELTKNQVSLTCLVKGFYPSDIAVEWESNGQPENNYKTTPPVLDSDGSFFLYSKLTVDKSRWQQGNVFSCSVMHEALHYHVTRKELSLSP
light: DIQMTQSPSSLSASVGDSVTITCQASTDISSHLNWYQQKPGKAPELLIYYGSHLLSGVPSRFSGSGSGTDFTFTISSLEAEDAATYYCGQGNRLPYTFGQGTKVEIERTVAAPSVFIFPPSDEQLKSGTASVVCLLNNFYPREAKVQWKVDNALQSGNSQESVTEQDSKDSTYSLSSTLTLSKADYEKHKVYACEVTHQGLSSPVTKSFNRGEC
notes: S440F as printed
B2: F1725 (antibody)
heavy: QVQLQESGPGLVKPSETLSLTCAVSGHSISHDHAWSWVRQPPGEGLEWIGFISYSGITNYNPSLQGRVTISRDNSKNTLYLQMNSLRAEDTAVYYCARSLARTTAMDYWGEGTLVTVSSASTKGPSVFPLAPSSKSTSGGTAALGCLVKDYFPEPVTVSWNSGALTSGVHTFPAVLQSSGLYSLSSVVTVPSSSLGTQTYICNVNHKPSNTKVDKKVEPKSCDKTHTCPPCPAPELLGGPSVFLFPPKPKDTLMISRTPEVTCVVVDVSHEDPEVKFNWYVDGVEVHNAKTKPREEQYNSTYRVVSVLTVLHQDWLNGKEYKCKVSNKALPAPIEKTISKAKGQPREPQVYTLPPSRDELTKNQVSLTCLVKGFYPSDIAVEWESNGQPENNYKTTPPVLDSDGSFFLYSKLTVDKSRWQQGNVFSCSVMHEALDYHVTKKDLSLSP
light: DIQMTQSPSSLSASVGDSVTITCQASTDISSHLNWYQQKPGKAPELLIYYGSHLLSGVPSRFSGSGSGTDFTFTISSLEAEDAATYYCGQGNRLPYTFGQGTKVEIERTVAAPSVFIFPPSDEQLKSGTASVVCLLNNFYPREAKVQWKVDNALQSGNSQESVTEQDSKDSTYSLSSTLTLSKADYEKHKVYACEVTHQGLSSPVTKSFNRGEC
B3: F1720 (antibody)
heavy: QVQLQESGPGLVKPSETLSLTCAVSGHSISHDHAWSWVRQPPGEGLEWIGFISYSGITNYNPSLQGRVTISRDNSKNTLYLQMNSLRAEDTAVYYCARSLARTTAMDYWGEGTLVTVSSASTKGPSVFPLAPSSKSTSGGTAALGCLVKDYFPEPVTVSWNSGALTSGVHTFPAVLQSSGLYSLSSVVTVPSSSLGTQTYICNVNHKPSNTKVDKKVEPKSCDKTHTCPPCPAPELLGGPSVFLFPPKPKDTLMISRTPEVTCVVVDVSHEDPEVKFNWYVDGVEVHNAKTKPREEQYNSTYRVVSVLTVLHQDWLNGKEYKCKVSNKALPAPIEKTISKAKGQPREPQVYTLPPSRDELTKNQVSLTCLVKGFYPSDIAVEWESNGQPENNYKTTPPVLDSDGSFFLYSKLTVDKSRWQQGNVFSCSVMHEALHYHVTKKELSLSP
light: DIQMTQSPSSLSASVGDSVTITCQASTDISSHLNWYQQKPGKAPELLIYYGSHLLSGVPSRFSGSGSGTDFTFTISSLEAEDAATYYCGQGNRLPYTFGQGTKVEIERTVAAPSVFIFPPSDEQLKSGTASVVCLLNNFYPREAKVQWKVDNALQSGNSQESVTEQDSKDSTYSLSSTLTLSKADYEKHKVYACEVTHQGLSSPVTKSFNRGEC
B4: F1724 (antibody)
heavy: QVQLQESGPGLVKPSETLSLTCAVSGHSISHDHAWSWVRQPPGEGLEWIGFISYSGITNYNPSLQGRVTISRDNSKNTLYLQMNSLRAEDTAVYYCARSLARTTAMDYWGEGTLVTVSSASTKGPSVFPLAPSSKSTSGGTAALGCLVKDYFPEPVTVSWNSGALTSGVHTFPAVLQSSGLYSLSSVVTVPSSSLGTQTYICNVNHKPSNTKVDKKVEPKSCDKTHTCPPCPAPELLGGPSVFLFPPKPKDTLMISRTPEVTCVVVDVSHEDPEVKFNWYVDGVEVHNAKTKPREEQYNSTYRVVSVLTVLHQDWLNGKEYKCKVSNKALPAPIEKTISKAKGQPREPQVYTLPPSRDELTKNQVSLTCLVKGFYPSDIAVEWESNGQPENNYKTTPPVLDSDGSFFLYSKLTVDKSRWQQGNVFSCSVMHEALDYHVTKKELSLSP
light: DIQMTQSPSSLSASVGDSVTITCQASTDISSHLNWYQQKPGKAPELLIYYGSHLLSGVPSRFSGSGSGTDFTFTISSLEAEDAATYYCGQGNRLPYTFGQGTKVEIERTVAAPSVFIFPPSDEQLKSGTASVVCLLNNFYPREAKVQWKVDNALQSGNSQESVTEQDSKDSTYSLSSTLTLSKADYEKHKVYACEVTHQGLSSPVTKSFNRGEC
B5: F1723 (antibody)
heavy: QVQLQESGPGLVKPSETLSLTCAVSGHSISHDHAWSWVRQPPGEGLEWIGFISYSGITNYNPSLQGRVTISRDNSKNTLYLQMNSLRAEDTAVYYCARSLARTTAMDYWGEGTLVTVSSASTKGPSVFPLAPSSKSTSGGTAALGCLVKDYFPEPVTVSWNSGALTSGVHTFPAVLQSSGLYSLSSVVTVPSSSLGTQTYICNVNHKPSNTKVDKKVEPKSCDKTHTCPPCPAPELLGGPSVFLFPPKPKDTLMISRTPEVTCVVVDVSHEDPEVKFNWYVDGVEVHNAKTKPREEQYNSTYRVVSVLTVLHQDWLNGKEYKCKVSNKALPAPIEKTISKAKGQPREPQVYTLPPSRDELTKNQVSLTCLVKGFYPSDIAVEWESNGQPENNYKTTPPVLDSDGSFFLYSKLTVDKSRWQQGNVFSCSVMHEALDYHVTRKDLSLSP
light: DIQMTQSPSSLSASVGDSVTITCQASTDISSHLNWYQQKPGKAPELLIYYGSHLLSGVPSRFSGSGSGTDFTFTISSLEAEDAATYYCGQGNRLPYTFGQGTKVEIERTVAAPSVFIFPPSDEQLKSGTASVVCLLNNFYPREAKVQWKVDNALQSGNSQESVTEQDSKDSTYSLSSTLTLSKADYEKHKVYACEVTHQGLSSPVTKSFNRGEC
B6: F1719 (antibody)
heavy: QVQLQESGPGLVKPSETLSLTCAVSGHSISHDHAWSWVRQPPGEGLEWIGFISYSGITNYNPSLQGRVTISRDNSKNTLYLQMNSLRAEDTAVYYCARSLARTTAMDYWGEGTLVTVSSASTKGPSVFPLAPSSKSTSGGTAALGCLVKDYFPEPVTVSWNSGALTSGVHTFPAVLQSSGLYSLSSVVTVPSSSLGTQTYICNVNHKPSNTKVDKKVEPKSCDKTHTCPPCPAPELLGGPSVFLFPPKPKDTLMISRTPEVTCVVVDVSHEDPEVKFNWYVDGVEVHNAKTKPREEQYNSTYRVVSVLTVLHQDWLNGKEYKCKVSNKALPAPIEKTISKAKGQPREPQVYTLPPSRDELTKNQVSLTCLVKGFYPSDIAVEWESNGQPENNYKTTPPVLDSDGSFFLYSKLTVDKSRWQQGNVFSCSVMHEALHYHVTRKDLSLSP
light: DIQMTQSPSSLSASVGDSVTITCQASTDISSHLNWYQQKPGKAPELLIYYGSHLLSGVPSRFSGSGSGTDFTFTISSLEAEDAATYYCGQGNRLPYTFGQGTKVEIERTVAAPSVFIFPPSDEQLKSGTASVVCLLNNFYPREAKVQWKVDNALQSGNSQESVTEQDSKDSTYSLSSTLTLSKADYEKHKVYACEVTHQGLSSPVTKSFNRGEC

T1 sequence (P55899 24-297 limits assumed, chain 1 of 2): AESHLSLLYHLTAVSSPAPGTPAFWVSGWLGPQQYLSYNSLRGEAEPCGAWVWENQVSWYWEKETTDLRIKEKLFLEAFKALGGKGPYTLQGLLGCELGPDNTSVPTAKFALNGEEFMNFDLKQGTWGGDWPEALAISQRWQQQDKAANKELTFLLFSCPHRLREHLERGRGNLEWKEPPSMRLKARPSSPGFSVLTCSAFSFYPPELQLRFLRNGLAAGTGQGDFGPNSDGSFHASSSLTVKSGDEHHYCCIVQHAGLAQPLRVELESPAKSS
T1 sequence (P61769 21-119 limits assumed, chain 2 of 2): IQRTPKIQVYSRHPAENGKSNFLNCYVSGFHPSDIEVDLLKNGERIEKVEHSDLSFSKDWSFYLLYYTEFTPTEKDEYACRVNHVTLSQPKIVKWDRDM

This assay has as its target T1, soluble human FcRn (human, UniProt P55899 24-297; P61769 21-119).
T1 construct: Heterodimer of alpha chain and beta2-microglobulin; also called hFcRn
Description: SPR (Biacore), pH 6.0. (In general: Surface plasmon resonance follows binding to a sensor surface in real time, without labels.)
By Kd is commonly meant the constant that tells how readily two partners part at equilibrium. Lower therefore signals higher affinity. B1 came in with a Kd of 61 nM. As to B2, the dissociation constant Kd was 93 nM.

On to B3, for which the Kd was 45 nM. Take B4: binding was put at a Kd of 99 nM.

The molecule B5 displayed a Kd of 96 nM.

Molecule B6 showed a Kd of 52 nM.
